Measured values as given in the supplement of paper PMC10065799, “High-throughput profiling of sequence recognition by tyrosine kinases and SH2 domains using bacterial peptide display” (eLife, 2023).

Tests used:
AncSZ = experiment: phosphorylation enrichment, bacterial display (enrichment ratio); higher = better substrate or ligand; peptides without Tyr show the background
FGFR1 = FGFR1 (UniProt P11362); experiment: as above
c-Abl (mouse) = experiment: as above
EPHB1 = EPHB1 (UniProt P54762); experiment: as above
Fes = Fes (UniProt P07332); experiment: as above
MERTK = MERTK (UniProt Q12866); experiment: as above
Jak2 = Jak2 (UniProt O60674); experiment: as above
c-Src = experiment: as above
Fyn = Fyn (UniProt P06241); experiment: as above
Hck = Hck (UniProt P08631); experiment: as above
FGFR3 = FGFR3 (UniProt P22607); experiment: as above
Fer (mouse) = experiment: as above
EPHB2 = EPHB2 (UniProt P29323); experiment: as above
c-Src SH2 = experiment: SH2 binding enrichment of the phosphorylated peptide, bacterial display (enrichment ratio); higher = better substrate or ligand; peptides without Tyr show the background
SHP2-C SH2 = experiment: as above
Grb2 SH2 = Grb2 SH2 (UniProt P62993); experiment: as above
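For SH2 binding enrichment of the phosphorylated peptide, bacterial display in this document: peptide library displayed on the E. coli surface as eCPX fusions, selected cells deep-sequenced, score is each peptide's frequency after selection divided by its frequency in the input.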
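For phosphorylation enrichment, bacterial display in this document: 11-residue human phosphosite peptides and single-mutation variants displayed on the E. coli surface, counted by deep sequencing, each peptide's frequency after selection divided by its frequency in the unselected input library; frequency after pTyr selection over input frequency; kinase dosed for 20-30% of maximal phosphorylation in three min.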

Chain of Hck (P08631 whole entry, looked up): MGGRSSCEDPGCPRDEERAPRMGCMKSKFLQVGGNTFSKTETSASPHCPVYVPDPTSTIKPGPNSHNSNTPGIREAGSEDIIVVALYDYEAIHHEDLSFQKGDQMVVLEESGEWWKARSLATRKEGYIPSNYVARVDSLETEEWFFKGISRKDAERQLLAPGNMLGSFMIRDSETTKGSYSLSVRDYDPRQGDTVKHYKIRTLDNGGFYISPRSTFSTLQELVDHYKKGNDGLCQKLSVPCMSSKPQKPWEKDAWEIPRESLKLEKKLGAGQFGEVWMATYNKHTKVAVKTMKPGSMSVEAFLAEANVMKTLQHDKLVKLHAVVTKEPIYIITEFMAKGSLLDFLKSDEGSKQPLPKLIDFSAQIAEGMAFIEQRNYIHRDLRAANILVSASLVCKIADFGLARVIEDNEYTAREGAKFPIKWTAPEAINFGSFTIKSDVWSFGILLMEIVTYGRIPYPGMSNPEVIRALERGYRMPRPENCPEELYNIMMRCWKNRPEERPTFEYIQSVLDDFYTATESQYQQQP
Chain of Fyn (P06241 whole entry, looked up): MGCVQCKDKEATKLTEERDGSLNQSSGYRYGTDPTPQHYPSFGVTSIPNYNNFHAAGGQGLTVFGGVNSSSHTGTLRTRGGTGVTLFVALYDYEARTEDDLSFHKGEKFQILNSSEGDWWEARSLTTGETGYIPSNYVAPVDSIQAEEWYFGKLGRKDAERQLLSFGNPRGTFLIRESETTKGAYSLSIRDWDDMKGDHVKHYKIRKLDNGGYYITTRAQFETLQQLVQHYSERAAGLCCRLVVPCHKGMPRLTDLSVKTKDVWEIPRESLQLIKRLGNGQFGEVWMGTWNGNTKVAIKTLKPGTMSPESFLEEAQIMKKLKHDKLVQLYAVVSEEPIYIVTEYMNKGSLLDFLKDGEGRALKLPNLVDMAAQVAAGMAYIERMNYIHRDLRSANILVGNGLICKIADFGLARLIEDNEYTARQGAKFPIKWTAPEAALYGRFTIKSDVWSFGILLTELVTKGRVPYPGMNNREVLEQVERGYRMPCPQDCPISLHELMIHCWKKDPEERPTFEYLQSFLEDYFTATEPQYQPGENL
Chain of EPHB2 (P29323 whole entry, looked up): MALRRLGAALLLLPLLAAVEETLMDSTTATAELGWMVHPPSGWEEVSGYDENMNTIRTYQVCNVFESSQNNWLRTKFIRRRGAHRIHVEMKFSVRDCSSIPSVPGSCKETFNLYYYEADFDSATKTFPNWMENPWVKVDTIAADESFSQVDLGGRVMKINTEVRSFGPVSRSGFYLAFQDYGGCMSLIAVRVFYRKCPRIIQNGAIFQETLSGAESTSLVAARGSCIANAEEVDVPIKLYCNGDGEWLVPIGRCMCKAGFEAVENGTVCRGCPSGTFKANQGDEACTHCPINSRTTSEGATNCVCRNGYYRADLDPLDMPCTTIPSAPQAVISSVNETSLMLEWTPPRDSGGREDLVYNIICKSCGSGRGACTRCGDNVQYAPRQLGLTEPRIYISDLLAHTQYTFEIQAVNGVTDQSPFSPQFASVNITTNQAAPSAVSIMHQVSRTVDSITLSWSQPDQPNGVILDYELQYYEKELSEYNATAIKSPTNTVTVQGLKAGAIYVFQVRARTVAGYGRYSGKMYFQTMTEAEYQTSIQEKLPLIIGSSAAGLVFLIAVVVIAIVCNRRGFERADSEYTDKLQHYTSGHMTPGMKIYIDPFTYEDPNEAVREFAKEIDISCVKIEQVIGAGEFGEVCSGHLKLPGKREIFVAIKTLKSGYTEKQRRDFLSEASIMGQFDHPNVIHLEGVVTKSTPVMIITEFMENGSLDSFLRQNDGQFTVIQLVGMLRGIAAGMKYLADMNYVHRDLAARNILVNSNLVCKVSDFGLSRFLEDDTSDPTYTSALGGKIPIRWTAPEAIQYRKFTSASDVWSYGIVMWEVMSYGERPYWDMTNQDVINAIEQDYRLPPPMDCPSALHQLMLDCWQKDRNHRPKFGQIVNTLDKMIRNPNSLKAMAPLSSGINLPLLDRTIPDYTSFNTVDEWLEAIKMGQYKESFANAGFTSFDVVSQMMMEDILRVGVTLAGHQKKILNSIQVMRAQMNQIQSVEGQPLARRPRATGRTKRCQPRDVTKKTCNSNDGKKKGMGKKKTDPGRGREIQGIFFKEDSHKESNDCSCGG
Chain of Jak2 (O60674 whole entry, looked up): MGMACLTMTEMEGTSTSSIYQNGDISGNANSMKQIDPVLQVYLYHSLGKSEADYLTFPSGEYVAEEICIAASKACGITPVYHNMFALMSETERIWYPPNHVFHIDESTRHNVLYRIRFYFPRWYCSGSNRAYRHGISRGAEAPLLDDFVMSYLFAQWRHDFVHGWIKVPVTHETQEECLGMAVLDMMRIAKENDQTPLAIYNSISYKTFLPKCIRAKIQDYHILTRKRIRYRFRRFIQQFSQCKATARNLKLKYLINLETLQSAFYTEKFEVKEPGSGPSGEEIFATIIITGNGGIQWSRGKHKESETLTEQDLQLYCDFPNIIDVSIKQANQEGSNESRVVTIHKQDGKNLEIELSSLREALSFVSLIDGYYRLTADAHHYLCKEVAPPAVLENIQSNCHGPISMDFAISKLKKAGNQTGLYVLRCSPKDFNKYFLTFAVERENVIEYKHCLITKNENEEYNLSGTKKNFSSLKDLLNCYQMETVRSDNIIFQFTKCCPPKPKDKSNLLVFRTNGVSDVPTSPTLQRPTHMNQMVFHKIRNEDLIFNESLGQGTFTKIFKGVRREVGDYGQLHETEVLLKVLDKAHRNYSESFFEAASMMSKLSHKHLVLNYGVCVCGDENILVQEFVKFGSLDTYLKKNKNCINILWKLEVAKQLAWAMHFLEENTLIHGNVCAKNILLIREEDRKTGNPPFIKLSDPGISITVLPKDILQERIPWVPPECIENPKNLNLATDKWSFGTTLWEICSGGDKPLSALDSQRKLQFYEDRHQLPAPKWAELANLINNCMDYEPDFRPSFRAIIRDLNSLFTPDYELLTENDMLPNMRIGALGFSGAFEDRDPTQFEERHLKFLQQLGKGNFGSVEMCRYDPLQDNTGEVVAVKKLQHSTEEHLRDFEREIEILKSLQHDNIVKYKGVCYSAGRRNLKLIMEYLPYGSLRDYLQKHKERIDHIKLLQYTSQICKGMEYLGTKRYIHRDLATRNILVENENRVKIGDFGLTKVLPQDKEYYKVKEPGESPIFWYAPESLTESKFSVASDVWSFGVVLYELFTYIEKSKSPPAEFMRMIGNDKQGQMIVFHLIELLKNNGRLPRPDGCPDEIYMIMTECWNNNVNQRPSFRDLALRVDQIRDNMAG
Chain of FGFR3 (P22607 whole entry, looked up): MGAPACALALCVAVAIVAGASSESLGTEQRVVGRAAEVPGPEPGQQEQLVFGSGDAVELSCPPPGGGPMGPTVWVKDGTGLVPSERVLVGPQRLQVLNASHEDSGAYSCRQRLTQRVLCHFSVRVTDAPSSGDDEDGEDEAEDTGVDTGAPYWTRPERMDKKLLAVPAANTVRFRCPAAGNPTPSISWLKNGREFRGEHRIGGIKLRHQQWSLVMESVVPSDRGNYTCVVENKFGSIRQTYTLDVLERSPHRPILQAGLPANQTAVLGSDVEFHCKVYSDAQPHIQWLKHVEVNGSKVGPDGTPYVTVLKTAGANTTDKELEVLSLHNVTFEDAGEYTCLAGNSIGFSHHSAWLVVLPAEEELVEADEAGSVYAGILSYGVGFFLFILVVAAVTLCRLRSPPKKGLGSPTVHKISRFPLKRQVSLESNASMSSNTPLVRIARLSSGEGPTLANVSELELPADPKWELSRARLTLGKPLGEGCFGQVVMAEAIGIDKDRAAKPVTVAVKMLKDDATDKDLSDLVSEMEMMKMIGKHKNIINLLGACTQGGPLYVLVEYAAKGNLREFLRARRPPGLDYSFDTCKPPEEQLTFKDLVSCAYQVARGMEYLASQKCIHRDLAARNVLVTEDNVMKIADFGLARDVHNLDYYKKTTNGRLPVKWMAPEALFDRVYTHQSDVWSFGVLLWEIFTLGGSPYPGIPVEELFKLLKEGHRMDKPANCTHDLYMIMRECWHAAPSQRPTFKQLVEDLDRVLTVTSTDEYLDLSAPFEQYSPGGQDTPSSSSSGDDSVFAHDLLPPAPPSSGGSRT
Chain of EPHB1 (P54762 whole entry, looked up): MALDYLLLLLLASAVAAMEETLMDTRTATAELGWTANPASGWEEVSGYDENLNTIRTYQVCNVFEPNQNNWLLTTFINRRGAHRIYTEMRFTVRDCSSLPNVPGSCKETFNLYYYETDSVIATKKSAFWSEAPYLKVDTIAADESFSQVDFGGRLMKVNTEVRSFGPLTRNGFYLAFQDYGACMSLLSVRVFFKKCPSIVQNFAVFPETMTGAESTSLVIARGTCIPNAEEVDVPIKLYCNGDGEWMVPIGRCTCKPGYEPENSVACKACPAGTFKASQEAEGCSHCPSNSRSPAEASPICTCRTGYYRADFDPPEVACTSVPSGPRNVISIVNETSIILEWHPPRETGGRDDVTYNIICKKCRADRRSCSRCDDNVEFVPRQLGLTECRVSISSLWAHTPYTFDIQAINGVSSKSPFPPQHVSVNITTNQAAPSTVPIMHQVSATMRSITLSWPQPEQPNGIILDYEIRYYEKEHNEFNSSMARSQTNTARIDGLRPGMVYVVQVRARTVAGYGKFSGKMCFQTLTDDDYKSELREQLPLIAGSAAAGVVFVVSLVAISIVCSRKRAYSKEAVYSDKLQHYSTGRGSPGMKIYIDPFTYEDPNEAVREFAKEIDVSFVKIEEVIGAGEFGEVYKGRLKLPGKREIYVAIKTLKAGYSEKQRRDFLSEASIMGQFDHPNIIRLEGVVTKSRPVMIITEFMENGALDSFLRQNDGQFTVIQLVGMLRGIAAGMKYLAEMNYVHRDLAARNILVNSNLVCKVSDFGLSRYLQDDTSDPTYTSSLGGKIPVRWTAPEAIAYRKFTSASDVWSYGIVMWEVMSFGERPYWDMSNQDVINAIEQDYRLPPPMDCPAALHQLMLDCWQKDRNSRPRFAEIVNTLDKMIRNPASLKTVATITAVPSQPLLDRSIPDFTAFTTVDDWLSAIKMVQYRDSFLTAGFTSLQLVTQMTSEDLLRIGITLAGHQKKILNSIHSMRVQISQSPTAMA

| SH2 binding enrichment (c-Src SH2) | SH2 binding enrichment (SHP2-C SH2) | SH2 binding enrichment (Grb2 SH2) | Sequence | phosphorylation enrichment (AncSZ) | phosphorylation enrichment (FGFR1) | phosphorylation enrichment (c-Abl (mouse)) | phosphorylation enrichment (EPHB1) | phosphorylation enrichment (Fes) | phosphorylation enrichment (MERTK) | phosphorylation enrichment (Jak2) | phosphorylation enrichment (c-Src) | phosphorylation enrichment (Fyn) | phosphorylation enrichment (Hck) | phosphorylation enrichment (FGFR3) | phosphorylation enrichment (Fer (mouse)) | phosphorylation enrichment (EPHB2) |
| --- | --- | --- | --- | --- | --- | --- | --- | --- | --- | --- | --- | --- | --- | --- | --- | --- |
| 0.798 | 1.4 | 1.16 | IGSQRYKLGVR [RB1_Y446] | 0.447 | 0.369 | 0.41 | 0.336 | 0.426 | 0.306 | 0.436 | 0.356 | 0.332 | 0.31 | 0.364 | 0.322 | 0.332 |
| 0.591 | 0.733 | 1.16 | HLTNQFMQRVA [PABPC4_Y382_Y382F] | 0.791 | 0.576 | 0.898 | 0.621 | 0.809 | 0.673 | 0.697 | 0.541 | 0.437 | 0.722 | 0.631 | 0.527 | 0.35 |
| 2.26 | 0.525 | 0.761 | YEDTLYTVLHR [UNC13D_Y61_A59T] | 2.9 | 2.08 | 3.32 | 12.2 | 1.41 | 8.84 | 1.39 | 6.38 | 7.58 | 8.16 | 2.09 | 9.1 | 9.31 |
| 0.584 | 0.724 | 0.983 | FEEDSYSHVMA [FDPS_Y388_I391V_YF] | 1.57 | 0.934 | 0.731 | 0.696 | 1.3 | 0.631 | 1.14 | 0.779 | 0.511 | 0.646 | 0.901 | 1.42 | 0.482 |
| 0.392 | 0.636 | 0.713 | NKEAIYSGFIR [SMCHD1_Y283_YF] | 0.78 | 0.59 | 33.6 | 5.18 | 1.01 | 12.7 | 0.711 | 9.78 | 14.5 | 13.1 | 0.557 | 5.17 | 7.14 |
| 0.464 | 0.616 | 0.815 | APGDAYGDAGY [SYP_Y250] | 0.891 | 0.494 | 0.616 | 0.541 | 0.871 | 0.442 | 0.765 | 0.405 | 0.413 | 0.463 | 0.615 | 0.512 | 0.662 |
| 2.11 | 1.76 | 1.76 | CTIIHYNYMCN [TP53_Y234_T231I] | 0.963 | 0.583 | 0.534 | 0.723 | 1 | 0.419 | 0.829 | 0.452 | 0.588 | 0.521 | 0.798 | 0.633 | 0.694 |
| 0.357 | 0.694 | 0.766 | KGEDFYCVTRH [FHL1_Y149_C153R] | 1.22 | 0.498 | 0.835 | 0.592 | 1.2 | 0.82 | 1 | 0.794 | 0.633 | 0.808 | 0.715 | 0.662 | 0.558 |
| 0.571 | 0.774 | 0.831 | QMVRMYASSFM [AVPR2_Y124_G122R_YF] | 1.26 | 0.605 | 0.745 | 0.59 | 0.843 | 0.544 | 0.769 | 0.328 | 0.605 | 0.425 | 0.677 | 0.482 | 0.552 |
| 1.1 | 1.21 | 1.32 | GHGRFYMKEAI [PGM1_Y66_D62H] | 0.684 | 0.384 | 0.536 | 0.342 | 0.754 | 0.305 | 0.662 | 0.36 | 0.407 | 0.404 | 0.59 | 0.405 | 0.418 |
| 0.761 | 0.718 | 0.746 | GKFFQYDTWNQ [IGF2_Y116_K120N] | 1.06 | 0.643 | 0.78 | 0.545 | 1.07 | 0.588 | 0.933 | 0.872 | 0.51 | 0.741 | 0.639 | 0.533 | 0.7 |
| 5.21 | 18.8 | 0.917 | FEHVGYTTLNR [CHN1_Y148_YF] | 0.654 | 0.426 | 0.68 | 0.393 | 0.805 | 0.406 | 0.527 | 0.466 | 0.448 | 0.602 | 0.458 | 0.445 | 0.395 |
| 1.08 | 0.64 | 0.724 | MAFDRYVAICS [OR8D4_Y123_C120Y_YF] | 1.15 | 0.463 | 0.78 | 0.905 | 1.14 | 0.507 | 1.07 | 0.489 | 0.515 | 0.665 | 0.726 | 0.563 | 0.762 |
| 0.407 | 0.539 | 0.972 | GDYLSYREFHS [ERBIN_Y1107] | 2.1 | 4.66 | 19 | 16.8 | 0.903 | 0.489 | 1.54 | 2.48 | 2.8 | 2.42 | 3.56 | 0.414 | 23.1 |
| 0.482 | 0.657 | 0.765 | ATVRPYRPYII [LRP5_Y1528_A1525V] | 0.777 | 0.53 | 0.677 | 0.499 | 0.715 | 0.484 | 0.564 | 0.586 | 0.518 | 0.43 | 0.591 | 0.462 | 0.552 |
| 0.356 | 0.458 | 0.749 | ETLLFYGFRRS [POR_Y564_C566Y_YF] | 0.871 | 0.58 | 0.542 | 0.504 | 1.01 | 0.631 | 0.745 | 0.514 | 0.431 | 0.544 | 0.535 | 0.405 | 0.404 |
